Assay results published in patent US20150344570A1 (published 2015).

The binders below were run against T1, FcγRIIa R (human, UniProt P12318 34-217) (assay: SPR (Biacore), captured antibody, FcγR as analyte; relative binding activity).
T1 construct: extracellular domain; also called FcgRIIa R type; 2aR
T1 sequence (looked up): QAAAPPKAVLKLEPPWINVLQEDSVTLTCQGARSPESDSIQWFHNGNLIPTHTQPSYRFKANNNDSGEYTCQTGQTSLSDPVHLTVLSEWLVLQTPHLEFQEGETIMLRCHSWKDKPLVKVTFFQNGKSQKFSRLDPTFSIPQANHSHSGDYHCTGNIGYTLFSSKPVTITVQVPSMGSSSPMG

Binder	Ho/Con_2aR	He/Con_2aR
GpH7-B3 variant N325_14T/GpL16-k0 (antibody, human IgG1, kappa, also called Ho Ab N325_14T) heavy: not shown light: DIVMTQSPLSLPVTPGEPASISCQASESLVHSNRNTYLHWYLQKPGQSPQLLIYKVSNRFSGVPDRFSGSGSGTDFTLKISRVEAEDVGVYYCSQNTHVPPTFGQGTKVEIERTVAAPSVFIFPPSDEQLKSGTASVVCLLNNFYPREAKVQWKVDNALQSGNSQESVTEQDSKDSTYSLSSTLTLSKADYEKHKVYACEVTHQGLSSPVTKSFNRGEC	60.2 % (GpH7-B3/GpL16-k0 = 100)	–
GpH7-A5/GpH7-B3 variant N325_01G/GpL16-k0 (antibody, human IgG1, kappa, also called He Ab N325_01G) heavy 1: not shown heavy 2: not shown light: DIVMTQSPLSLPVTPGEPASISCQASESLVHSNRNTYLHWYLQKPGQSPQLLIYKVSNRFSGVPDRFSGSGSGTDFTLKISRVEAEDVGVYYCSQNTHVPPTFGQGTKVEIERTVAAPSVFIFPPSDEQLKSGTASVVCLLNNFYPREAKVQWKVDNALQSGNSQESVTEQDSKDSTYSLSSTLTLSKADYEKHKVYACEVTHQGLSSPVTKSFNRGEC	–	107 % (GpH7-A5/GpH7-B3/GpL16-k0 = 100)
GpH7-B3 variant P238_04F/GpL16-k0 (antibody, human IgG1, kappa, also called Ho Ab P238_04F) heavy: not shown light: DIVMTQSPLSLPVTPGEPASISCQASESLVHSNRNTYLHWYLQKPGQSPQLLIYKVSNRFSGVPDRFSGSGSGTDFTLKISRVEAEDVGVYYCSQNTHVPPTFGQGTKVEIERTVAAPSVFIFPPSDEQLKSGTASVVCLLNNFYPREAKVQWKVDNALQSGNSQESVTEQDSKDSTYSLSSTLTLSKADYEKHKVYACEVTHQGLSSPVTKSFNRGEC	146 % (GpH7-B3/GpL16-k0 = 100)	–
GpH7-B3 variant P238_09D/GpL16-k0 (antibody, human IgG1, kappa, also called Ho Ab P238_09D) heavy: not shown light: DIVMTQSPLSLPVTPGEPASISCQASESLVHSNRNTYLHWYLQKPGQSPQLLIYKVSNRFSGVPDRFSGSGSGTDFTLKISRVEAEDVGVYYCSQNTHVPPTFGQGTKVEIERTVAAPSVFIFPPSDEQLKSGTASVVCLLNNFYPREAKVQWKVDNALQSGNSQESVTEQDSKDSTYSLSSTLTLSKADYEKHKVYACEVTHQGLSSPVTKSFNRGEC	13 % (GpH7-B3/GpL16-k0 = 100)	–
GpH7-B3 variant P271_10E/GpL16-k0 (antibody, human IgG1, kappa, also called Ho Ab P271_10E) heavy: not shown light: DIVMTQSPLSLPVTPGEPASISCQASESLVHSNRNTYLHWYLQKPGQSPQLLIYKVSNRFSGVPDRFSGSGSGTDFTLKISRVEAEDVGVYYCSQNTHVPPTFGQGTKVEIERTVAAPSVFIFPPSDEQLKSGTASVVCLLNNFYPREAKVQWKVDNALQSGNSQESVTEQDSKDSTYSLSSTLTLSKADYEKHKVYACEVTHQGLSSPVTKSFNRGEC	88.8 % (GpH7-B3/GpL16-k0 = 100)	–
GpH7-B3 variant P331_04F/GpL16-k0 (antibody, human IgG1, kappa, also called Ho Ab P331_04F) heavy: not shown light: DIVMTQSPLSLPVTPGEPASISCQASESLVHSNRNTYLHWYLQKPGQSPQLLIYKVSNRFSGVPDRFSGSGSGTDFTLKISRVEAEDVGVYYCSQNTHVPPTFGQGTKVEIERTVAAPSVFIFPPSDEQLKSGTASVVCLLNNFYPREAKVQWKVDNALQSGNSQESVTEQDSKDSTYSLSSTLTLSKADYEKHKVYACEVTHQGLSSPVTKSFNRGEC	106 % (GpH7-B3/GpL16-k0 = 100)	–
GpH7-B3 variant P238_03V/GpL16-k0 (antibody, human IgG1, kappa, also called Ho Ab P238_03V) heavy: not shown light: DIVMTQSPLSLPVTPGEPASISCQASESLVHSNRNTYLHWYLQKPGQSPQLLIYKVSNRFSGVPDRFSGSGSGTDFTLKISRVEAEDVGVYYCSQNTHVPPTFGQGTKVEIERTVAAPSVFIFPPSDEQLKSGTASVVCLLNNFYPREAKVQWKVDNALQSGNSQESVTEQDSKDSTYSLSSTLTLSKADYEKHKVYACEVTHQGLSSPVTKSFNRGEC	116 % (GpH7-B3/GpL16-k0 = 100)	–
GpH7-B3 variant P238_20W/GpL16-k0 (antibody, human IgG1, kappa, also called Ho Ab P238_20W) heavy: not shown light: DIVMTQSPLSLPVTPGEPASISCQASESLVHSNRNTYLHWYLQKPGQSPQLLIYKVSNRFSGVPDRFSGSGSGTDFTLKISRVEAEDVGVYYCSQNTHVPPTFGQGTKVEIERTVAAPSVFIFPPSDEQLKSGTASVVCLLNNFYPREAKVQWKVDNALQSGNSQESVTEQDSKDSTYSLSSTLTLSKADYEKHKVYACEVTHQGLSSPVTKSFNRGEC	25.7 % (GpH7-B3/GpL16-k0 = 100)	–
GpH7-B3 variant P271_08L/GpL16-k0 (antibody, human IgG1, kappa, also called Ho Ab P271_08L) heavy: not shown light: DIVMTQSPLSLPVTPGEPASISCQASESLVHSNRNTYLHWYLQKPGQSPQLLIYKVSNRFSGVPDRFSGSGSGTDFTLKISRVEAEDVGVYYCSQNTHVPPTFGQGTKVEIERTVAAPSVFIFPPSDEQLKSGTASVVCLLNNFYPREAKVQWKVDNALQSGNSQESVTEQDSKDSTYSLSSTLTLSKADYEKHKVYACEVTHQGLSSPVTKSFNRGEC	102 % (GpH7-B3/GpL16-k0 = 100)	–
GpH7-B3 variant P238_15Y/GpL16-k0 (antibody, human IgG1, kappa, also called Ho Ab P238_15Y) heavy: not shown light: DIVMTQSPLSLPVTPGEPASISCQASESLVHSNRNTYLHWYLQKPGQSPQLLIYKVSNRFSGVPDRFSGSGSGTDFTLKISRVEAEDVGVYYCSQNTHVPPTFGQGTKVEIERTVAAPSVFIFPPSDEQLKSGTASVVCLLNNFYPREAKVQWKVDNALQSGNSQESVTEQDSKDSTYSLSSTLTLSKADYEKHKVYACEVTHQGLSSPVTKSFNRGEC	95.9 % (GpH7-B3/GpL16-k0 = 100)	–
GpH7-B3 variant P331_03V/GpL16-k0 (antibody, human IgG1, kappa, also called Ho Ab P331_03V) heavy: not shown light: DIVMTQSPLSLPVTPGEPASISCQASESLVHSNRNTYLHWYLQKPGQSPQLLIYKVSNRFSGVPDRFSGSGSGTDFTLKISRVEAEDVGVYYCSQNTHVPPTFGQGTKVEIERTVAAPSVFIFPPSDEQLKSGTASVVCLLNNFYPREAKVQWKVDNALQSGNSQESVTEQDSKDSTYSLSSTLTLSKADYEKHKVYACEVTHQGLSSPVTKSFNRGEC	89.1 % (GpH7-B3/GpL16-k0 = 100)	–
GpH7-B3 variant P331_02A/GpL16-k0 (antibody, human IgG1, kappa, also called Ho Ab P331_02A) heavy: not shown light: DIVMTQSPLSLPVTPGEPASISCQASESLVHSNRNTYLHWYLQKPGQSPQLLIYKVSNRFSGVPDRFSGSGSGTDFTLKISRVEAEDVGVYYCSQNTHVPPTFGQGTKVEIERTVAAPSVFIFPPSDEQLKSGTASVVCLLNNFYPREAKVQWKVDNALQSGNSQESVTEQDSKDSTYSLSSTLTLSKADYEKHKVYACEVTHQGLSSPVTKSFNRGEC	102 % (GpH7-B3/GpL16-k0 = 100)	–
GpH7-B3 variant P238_06M/GpL16-k0 (antibody, human IgG1, kappa, also called Ho Ab P238_06M) heavy: not shown light: DIVMTQSPLSLPVTPGEPASISCQASESLVHSNRNTYLHWYLQKPGQSPQLLIYKVSNRFSGVPDRFSGSGSGTDFTLKISRVEAEDVGVYYCSQNTHVPPTFGQGTKVEIERTVAAPSVFIFPPSDEQLKSGTASVVCLLNNFYPREAKVQWKVDNALQSGNSQESVTEQDSKDSTYSLSSTLTLSKADYEKHKVYACEVTHQGLSSPVTKSFNRGEC	88.9 % (GpH7-B3/GpL16-k0 = 100)	–
GpH7-B3 variant P238_16H/GpL16-k0 (antibody, human IgG1, kappa, also called Ho Ab P238_16H) heavy: not shown light: DIVMTQSPLSLPVTPGEPASISCQASESLVHSNRNTYLHWYLQKPGQSPQLLIYKVSNRFSGVPDRFSGSGSGTDFTLKISRVEAEDVGVYYCSQNTHVPPTFGQGTKVEIERTVAAPSVFIFPPSDEQLKSGTASVVCLLNNFYPREAKVQWKVDNALQSGNSQESVTEQDSKDSTYSLSSTLTLSKADYEKHKVYACEVTHQGLSSPVTKSFNRGEC	25.5 % (GpH7-B3/GpL16-k0 = 100)	–
GpH7-B3 variant P238_19Q/GpL16-k0 (antibody, human IgG1, kappa, also called Ho Ab P238_19Q) heavy: not shown light: DIVMTQSPLSLPVTPGEPASISCQASESLVHSNRNTYLHWYLQKPGQSPQLLIYKVSNRFSGVPDRFSGSGSGTDFTLKISRVEAEDVGVYYCSQNTHVPPTFGQGTKVEIERTVAAPSVFIFPPSDEQLKSGTASVVCLLNNFYPREAKVQWKVDNALQSGNSQESVTEQDSKDSTYSLSSTLTLSKADYEKHKVYACEVTHQGLSSPVTKSFNRGEC	19.4 % (GpH7-B3/GpL16-k0 = 100)	–
GpH7-B3 variant N325_15Y/GpL16-k0 (antibody, human IgG1, kappa, also called Ho Ab N325_15Y) heavy: not shown light: DIVMTQSPLSLPVTPGEPASISCQASESLVHSNRNTYLHWYLQKPGQSPQLLIYKVSNRFSGVPDRFSGSGSGTDFTLKISRVEAEDVGVYYCSQNTHVPPTFGQGTKVEIERTVAAPSVFIFPPSDEQLKSGTASVVCLLNNFYPREAKVQWKVDNALQSGNSQESVTEQDSKDSTYSLSSTLTLSKADYEKHKVYACEVTHQGLSSPVTKSFNRGEC	42.6 % (GpH7-B3/GpL16-k0 = 100)	–
GpH7-B3 variant P271_09D/GpL16-k0 (antibody, human IgG1, kappa, also called Ho Ab P271_09D) heavy: not shown light: DIVMTQSPLSLPVTPGEPASISCQASESLVHSNRNTYLHWYLQKPGQSPQLLIYKVSNRFSGVPDRFSGSGSGTDFTLKISRVEAEDVGVYYCSQNTHVPPTFGQGTKVEIERTVAAPSVFIFPPSDEQLKSGTASVVCLLNNFYPREAKVQWKVDNALQSGNSQESVTEQDSKDSTYSLSSTLTLSKADYEKHKVYACEVTHQGLSSPVTKSFNRGEC	92.4 % (GpH7-B3/GpL16-k0 = 100)	–
GpH7-A5/GpH7-B3 variant A327_10E/GpL16-k0 (antibody, human IgG1, kappa, also called He Ab A327_10E) heavy 1: not shown heavy 2: not shown light: DIVMTQSPLSLPVTPGEPASISCQASESLVHSNRNTYLHWYLQKPGQSPQLLIYKVSNRFSGVPDRFSGSGSGTDFTLKISRVEAEDVGVYYCSQNTHVPPTFGQGTKVEIERTVAAPSVFIFPPSDEQLKSGTASVVCLLNNFYPREAKVQWKVDNALQSGNSQESVTEQDSKDSTYSLSSTLTLSKADYEKHKVYACEVTHQGLSSPVTKSFNRGEC	–	110 % (GpH7-A5/GpH7-B3/GpL16-k0 = 100)
GpH7-B3 variant N325_20W/GpL16-k0 (antibody, human IgG1, kappa, also called Ho Ab N325_20W) heavy: not shown light: DIVMTQSPLSLPVTPGEPASISCQASESLVHSNRNTYLHWYLQKPGQSPQLLIYKVSNRFSGVPDRFSGSGSGTDFTLKISRVEAEDVGVYYCSQNTHVPPTFGQGTKVEIERTVAAPSVFIFPPSDEQLKSGTASVVCLLNNFYPREAKVQWKVDNALQSGNSQESVTEQDSKDSTYSLSSTLTLSKADYEKHKVYACEVTHQGLSSPVTKSFNRGEC	56 % (GpH7-B3/GpL16-k0 = 100)	–
GpH7-B3 variant P238_10E/GpL16-k0 (antibody, human IgG1, kappa, also called Ho Ab P238_10E) heavy: not shown light: DIVMTQSPLSLPVTPGEPASISCQASESLVHSNRNTYLHWYLQKPGQSPQLLIYKVSNRFSGVPDRFSGSGSGTDFTLKISRVEAEDVGVYYCSQNTHVPPTFGQGTKVEIERTVAAPSVFIFPPSDEQLKSGTASVVCLLNNFYPREAKVQWKVDNALQSGNSQESVTEQDSKDSTYSLSSTLTLSKADYEKHKVYACEVTHQGLSSPVTKSFNRGEC	21.4 % (GpH7-B3/GpL16-k0 = 100)	–
GpH7-A5/GpH7-B3 variant A327_09D/GpL16-k0 (antibody, human IgG1, kappa, also called He Ab A327_09D) heavy 1: not shown heavy 2: not shown light: DIVMTQSPLSLPVTPGEPASISCQASESLVHSNRNTYLHWYLQKPGQSPQLLIYKVSNRFSGVPDRFSGSGSGTDFTLKISRVEAEDVGVYYCSQNTHVPPTFGQGTKVEIERTVAAPSVFIFPPSDEQLKSGTASVVCLLNNFYPREAKVQWKVDNALQSGNSQESVTEQDSKDSTYSLSSTLTLSKADYEKHKVYACEVTHQGLSSPVTKSFNRGEC	–	124 % (GpH7-A5/GpH7-B3/GpL16-k0 = 100)
